Results from publication PMC8413711 (2021).
Substitutions are numbered along the chain they refer to.

B1: BD-515 (antibody, V domains shown)
VH: EVQLVESGGGLVQPGGSLRLSCAASEFIVSRNYMSWVRQAPGKGLEWVSVIYSGGSTFYADSVKGRFTISRDNSKNTLYLQMNSLRAEDTGVYYCARDRGLVSDYWGQGTLVTVSS
VL: DIQMTQSPSSLSASVGDRVTITCQASQDINKYLNWYQQKPGKAPKLLIFDASHLETGVPSRFSASGSGTDFTFTISSLQPEDIATYYCHQYDNLPRTFGQGTRLEIK
B2: BD-508 (antibody, V domains shown)
VH: EVQLVESGGGLVQPGGSLRLSCAASGFIVSSNYMTWVRQAPGKGLEWVSVIYSGGSTFYADSVKGRFTISRHNSKNTLFLQMNSLRAEDTAVYYCARDAQNYGMDVWGQGTTVTVSS
VL: DIQMTQSPSSLSASVGDRVTITCRASQSISSYLNWYQQKPGKAPKLLIFAASSLQTGAPSRFSGSGSGTDFTLTISSLQPEDFATYYCQQSYSTPPYTFGQGTKLEIK
B3: BD-623 (antibody, V domains shown)
VH: EVQLVESGGGLVQPGGSLRLSCAASGFTVSSNYMSWVRQAPGKGLEWVSIIYSGGSTYYADSVKGRFTISRDNSKNTLYLQMNSLRAEDTAVYYCARDYAGRVWGQGTLVTVSS
VL: QSALTQPASVSGSPGQSITISCTGTSSDVGSYNLVSWYQQRPGKAPKLILYEVTKRPSGVSNRFSGSKSGNTASLAISGLQAEDEADYYCCSYAGSSTWVFGGGTKLTVL
B4: BD-503 (antibody, V domains shown)
VH: EVQLVESGGGLIQPGGSLRLSCAASGLIVSSNYMSWVRQAPGKGLEWVSVLYAGGSTDYAGSVKGRFTISRDNSKNTLYLQMNSLRAEDTAVYYCARDAAVYGIDVWGQGTTVTVSS
VL: not shown
B5: BD-604 (antibody, V domains shown)
VH: B2 VH with V12I, F27I, H72D, F79Y, N83S, A99L, Q100G, N101P
VL: DIQLTQSPSFLSASVGDRVTITCRASQGISSDLAWYQQKPGKAPNLLIYAASTLQSGVPSRFSGSGSGTEFTLTISSLQPEDFATYYCQQLNSDLYTFGQGTKLEIK

target: T1, SARS-CoV-2 RBD (SARS-CoV-2, UniProt P0DTC2 319-541); test: SPR

Binder	koff [s⁻¹]
B1	0.000389
B2	0.000514

target: T1, SARS-CoV-2 RBD; test: SPR; remark: another data set of the same source

Binder	Kd [pM]
B1	561
B3	120
B4	204
B5	12
B2	1300
